Results: the Immune Epitope Database (IEDB)

Assays:
Experiment in all cases: IEDB peptide-MHC binding, purified MHC/competitive/radioactivity; filed as Kd, often an IC50 or EC50 that approximates it; ≥ and ≤ were set here for values at or beyond the usual limits of such assays
HLA-A*03:01 = biological target: HLA-A*03:01
HLA-A*11:01 = biological target: HLA-A*11:01
HLA-A*31:01 = biological target: HLA-A*31:01
HLA-A*33:01 = biological target: HLA-A*33:01
HLA-A*68:01 = biological target: HLA-A*68:01
[1] = source organism: Vaccinia virus WR
[2] = source organism: Mammarenavirus juninense
[3] = source organism: Dengue virus 3 Martinique/1243/1999
[4] = source organism: Mammarenavirus guanaritoense
[5] = source organism: Lassa virus Josiah
[6] = source organism: Dengue virus 1 Brazil/97-11/1997
[7] = source organism: Triticum aestivum
[8] = source organism: Dengue virus 4 Dominica/814669/1981
[9] = source organism: Mammarenavirus machupoense
[10] = source organism: SARS coronavirus Tor2

Sequence	Kd (HLA-A*03:01; [1])	Kd (HLA-A*11:01; [1])	Kd (HLA-A*31:01; [1])	Kd (HLA-A*33:01; [1])	Kd (HLA-A*68:01; [1])	also measured
KSINKVYGRY	2610 nM	1190 nM	64.3 nM	≥ 70000 nM	≥ 33500 nM	–
MTSWLDFSH	–	–	–	–	–	Kd (HLA-A*03:01; [2]): 548 nM; Kd (HLA-A*11:01; [2]): 116 nM; Kd (HLA-A*31:01; [2]): 176 nM; Kd (HLA-A*33:01; [2]): 13600 nM; Kd (HLA-A*68:01; [2]): 3.36 nM
KSVTKSSSWK	10 nM	13.8 nM	376 nM	≥ 55700 nM	79 nM	–
YIVHSYLKNY	≥ 70100 nM	≥ 69800 nM	≥ 70000 nM	≥ 70000 nM	≥ 70200 nM	–
CLEWLRAKRK	1000 nM	19500 nM	2720 nM	11300 nM	≥ 57300 nM	–
CTTTGEHRR	–	–	–	–	–	Kd (HLA-A*68:01; source organism: Dengue virus 2 Peru/IQT2913/1996): 27.6 nM
IQRFSSLRR	125 nM	1010 nM	55.9 nM	≥ 30400 nM	11900 nM	–
AARILSEKRK	7880 nM	3140 nM	≥ 63700 nM	≥ 70000 nM	8050 nM	–
MLVTPSMTMR	–	–	–	–	–	Kd (HLA-A*31:01; [3]): 111 nM; Kd (HLA-A*68:01; [3]): 54.7 nM
EIIFLKLFK	16.1 nM	1.25 nM	602 nM	99.3 nM	0.699 nM	–
STDNAVYQCR	5720 nM	35.4 nM	427 nM	2890 nM	81.3 nM	–
WIQYDKHCY	5820 nM	39.5 nM	5660 nM	≥ 60400 nM	2980 nM	–
ACRCGRFQK	–	–	–	–	–	Kd (HLA-A*03:01; [4]): 3570 nM; Kd (HLA-A*11:01; [4]): 5130 nM; Kd (HLA-A*31:01; [4]): 1440 nM; Kd (HLA-A*33:01; [4]): ≥ 27300 nM
PAAEFRRVAH	–	–	–	–	–	Kd (HLA-A*03:01; [2]): ≥ 70000 nM; Kd (HLA-A*11:01; [2]): ≥ 69700 nM; Kd (HLA-A*31:01; [2]): 9340 nM; Kd (HLA-A*33:01; [2]): ≥ 24400 nM; Kd (HLA-A*68:01; [2]): ≥ 70100 nM
LLIWAYLSKK	42.1 nM	124 nM	1980 nM	2340 nM	363 nM	–
DICSKHMDAR	≥ 47100 nM	≥ 69800 nM	1480 nM	126 nM	605 nM	–
AVFKNSFLGK	–	–	–	–	–	Kd (HLA-A*03:01; source organism: Variola virus): ≥ 70000 nM; Kd (HLA-A*11:01; source organism: Variola virus): ≥ 69700 nM; Kd (HLA-A*31:01; source organism: Variola virus): ≥ 70000 nM; Kd (HLA-A*33:01; source organism: Variola virus): ≥ 70000 nM; Kd (HLA-A*68:01; source organism: Variola virus): ≥ 70100 nM
THLGPQFCK	–	–	–	–	–	Kd (HLA-A*03:01; [5]): 880 nM; Kd (HLA-A*11:01; [5]): 284 nM; Kd (HLA-A*31:01; [5]): 15900 nM; Kd (HLA-A*33:01; [5]): ≥ 77700 nM; Kd (HLA-A*68:01; [5]): 338 nM
EFKEFAAGRR	–	–	–	–	–	Kd (HLA-A*33:01; [6]): 37.6 nM
QLLQELCCQH	–	–	–	–	–	Kd (HLA-A*03:01; [7]): ≥ 27100 nM; Kd (HLA-A*11:01; [7]): ≥ 69800 nM; Kd (HLA-A*31:01; [7]): ≥ 70000 nM; Kd (HLA-A*33:01; [7]): ≥ 70000 nM; Kd (HLA-A*68:01; [7]): 17400 nM
GYVLGVFLR	–	–	–	–	–	Kd (HLA-A*31:01; [8]): 53.2 nM; Kd (HLA-A*33:01; [8]): 1820 nM
PADCFLVKLK	2910 nM	1510 nM	≥ 31200 nM	17100 nM	≥ 22400 nM	–
YCSTNHLSK	–	–	–	–	–	Kd (HLA-A*03:01; [9]): 19200 nM; Kd (HLA-A*11:01; [9]): 14900 nM; Kd (HLA-A*31:01; [9]): ≥ 77900 nM; Kd (HLA-A*33:01; [9]): ≥ 77700 nM; Kd (HLA-A*68:01; [9]): ≥ 23100 nM
MFEQYFIYTY	18.6 nM	2140 nM	4510 nM	5690 nM	8110 nM	–
SSSIDVDKR	≥ 78000 nM	4750 nM	8950 nM	≥ 35000 nM	146 nM	–
MVMCGGSLY	–	–	–	–	–	Kd (HLA-A*03:01; [10]): 41.9 nM; Kd (HLA-A*11:01; [10]): 73.9 nM; Kd (HLA-A*31:01; [10]): 70.4 nM; Kd (HLA-A*33:01; [10]): 4620 nM; Kd (HLA-A*68:01; [10]): 22.6 nM
MATYGWNLVK	–	–	–	–	–	Kd (HLA-A*11:01; [6]): 370 nM
LSARNKLFKR	≥ 70100 nM	2680 nM	16.9 nM	1710 nM	124 nM	–
KFGNSINVK	7140 nM	6460 nM	618 nM	≥ 77700 nM	≥ 46400 nM	–
KSISSMTIR	1280 nM	281 nM	3.64 nM	7710 nM	832 nM	–
